Literature values, collected in article PMC6121496.
Where “and” joins values, the source holds several entries; their conditions need not be identical. Equal values may be shown once. Read-outs that look alike come from different tables or passages of the source.

How the values were obtained:
[1] = biological target: TEM-1 beta-lactamase (Escherichia coli) (UniProt P62593)
[2] = biological target: TEM-1 beta-lactamase (Escherichia coli) (UniProt P62593); remark: listed apart in the source
[3] = biological target: TEM-1 beta-lactamase (Escherichia coli) (UniProt P62593); remark: listed apart in the source
[4] = biological target: TEM-1 beta-lactamase (Escherichia coli) (UniProt P62593); test: SPR
[5] = biological target: TEM-1 beta-lactamase (Escherichia coli) (UniProt P62593); remark: listed apart in the source
[6] = biological target: TEM-1 beta-lactamase (Escherichia coli) (UniProt P62593); remark: listed apart in the source
[7] = biological target: PC1 beta-lactamase (Staphylococcus aureus) (UniProt P00807); test: stopped flow fluorometry, ITC
Sequence of UniProt P00807 (P00807 25-281): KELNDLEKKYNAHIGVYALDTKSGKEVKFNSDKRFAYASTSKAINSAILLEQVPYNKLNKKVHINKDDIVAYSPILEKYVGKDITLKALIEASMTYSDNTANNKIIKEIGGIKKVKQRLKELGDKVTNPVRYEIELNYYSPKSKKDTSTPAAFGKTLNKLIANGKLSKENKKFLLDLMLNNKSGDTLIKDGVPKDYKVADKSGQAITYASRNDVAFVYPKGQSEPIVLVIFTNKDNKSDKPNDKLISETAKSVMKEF

[8] = biological target: TEM-1 beta-lactamase (Escherichia coli) (UniProt P62593); test: SPR; remark: listed apart in the source
[9] = biological target: KPC-2 beta-lactamase (Klebsiella pneumoniae) (UniProt Q9F663)
[10] = biological target: SHV-1 beta-lactamase (Klebsiella pneumoniae) (UniProt P0AD64); test: enzyme inhibition
Sequence of UniProt P0AD64 (P0AD64 22-286): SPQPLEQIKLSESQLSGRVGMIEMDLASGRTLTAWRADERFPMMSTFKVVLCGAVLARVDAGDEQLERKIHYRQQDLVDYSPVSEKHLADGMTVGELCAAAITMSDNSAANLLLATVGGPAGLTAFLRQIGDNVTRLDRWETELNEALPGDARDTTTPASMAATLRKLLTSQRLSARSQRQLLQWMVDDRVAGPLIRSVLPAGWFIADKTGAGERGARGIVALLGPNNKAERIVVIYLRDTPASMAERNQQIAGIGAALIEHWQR

[11] = biological target: CTX-M14 beta-lactamase (Escherichia coli); test: enzyme inhibition
[12] = biological target: PC1 beta-lactamase (Staphylococcus aureus) (UniProt P00807); test: enzyme inhibition
[13] = biological target: SME-1 beta-lactamase (Serratia marcescens) (UniProt P52682); test: enzyme inhibition
Sequence of UniProt P52682 (P52682 28-294): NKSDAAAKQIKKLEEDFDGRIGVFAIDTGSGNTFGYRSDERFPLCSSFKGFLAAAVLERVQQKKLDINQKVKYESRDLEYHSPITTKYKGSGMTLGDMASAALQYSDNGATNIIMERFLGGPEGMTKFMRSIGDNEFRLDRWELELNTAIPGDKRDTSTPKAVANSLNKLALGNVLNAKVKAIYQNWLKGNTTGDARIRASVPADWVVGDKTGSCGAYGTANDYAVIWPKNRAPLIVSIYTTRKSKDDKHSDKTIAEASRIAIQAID

[14] = biological target: KPC-3 beta-lactamase (Klebsiella pneumoniae) (UniProt Q9F663); test: enzyme inhibition
[15] = biological target: TEM-1 beta-lactamase (Escherichia coli) (UniProt P62593); remark: listed apart in the source
[16] = biological target: TEM-1 beta-lactamase (Escherichia coli) (UniProt P62593); remark: listed apart in the source

Sequence of UniProt P62593 (P62593 24-286): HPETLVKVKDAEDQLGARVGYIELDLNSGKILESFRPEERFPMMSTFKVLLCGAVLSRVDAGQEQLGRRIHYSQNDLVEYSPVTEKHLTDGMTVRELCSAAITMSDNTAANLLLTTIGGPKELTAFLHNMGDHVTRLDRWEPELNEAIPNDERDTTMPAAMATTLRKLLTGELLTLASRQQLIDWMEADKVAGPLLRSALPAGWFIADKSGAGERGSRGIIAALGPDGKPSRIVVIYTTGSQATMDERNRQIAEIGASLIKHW

BLIP peptide (from UniProt P35804)
Ki [1]: 58000 nM

BLIP (from UniProt P35804)
Kd [2]: 1.3 nM and 1.7 nM
Kd [3]: 0.3 nM
Kd [4]: 1.25 nM
Kd [5]: 0.4 nM
Ki [6]: 0.5 nM
Kd [7]: 380 nM
Kd [8]: 15 nM
Ki [9]: 1.2 nM
Kd [10]: 1250 nM
Ki [10]: 1100 nM and 1130 nM
Ki [11]: 810 nM
Ki [12]: 350 nM
Ki [13]: 2.4 nM
Ki [14]: 0.25 nM
Ki [15]: 0.4 nM

BLIP peptide 30-49 (from UniProt P35804)
Ki [16]: 352000 nM
